Entries after “also recorded” stand apart in the source; their conditions may differ. Square brackets hold non-standard residues; d marks the D form. Ends that are not written are not given here.
What was measured:
Format in all cases: physicochemical
[1] = High-throughput centrifuge analysis of mechanical properties of the hydrogels (surface deformation, metal bead penetration); conditions: 5 mM peptide-starPEG + 5 mM 14-kDa-heparin
Method: (§1) ATIII is a heparin-binding peptide known from the literature. All peptides are connected to a four-armed, maleimide functionalized 10-kDa-polyethylene glycol (starPEG). The hydrogel formation was tested in a 50 μI mixture, which contains 5 mM 14-kDa-heparin and 5 mM (2.5 mM) peptide-starPEG conjugate in phosphate buffer solution (1×PBS, pH 7.4). The deformation and penetration speed was analyzed through centrifuging the hydrogel in a 45° table centrifuge with 275 μm metal beads added to the surface. The deformation of the surface and the penetration of the metal beads were monitored in dependence on the applied force.
A comparative high-throughput analysis was performed regarding the mechanical properties of the hydrogels. In order to provide a fast high-throughput method for comparing small amounts of hydrogel, a tabletop centrifuge (5424R, Eppendorf, Hamburg, Germany) was used. For this purpose, 50 μl of the hydrogel were formed by mixing the peptide-starPEG-conjugates and 14-kDa-heparin in phosphate buffer (1×PBS, pH 7.4) to a final concentration of 5 mM (once 2.5 mM for KA7-starPEG). The mixture was incubated in 0.2 ml reaction vessels overnight. The deformation of the hydrogel surface was determined in reference to the 45° centrifuge rotor and the penetration of 275 μm metal beads in dependence on the force that has to be produced by the centrifuge. All experiments were repeated three times.
Hereby FIGS. 5A and B show a deformation of the surface of the 50 μl hydrogel in a 0.2 ml reaction tube, more specifically FIG. 5A below the speed required for deforming the surface, and FIG. 5B at the speed required for deforming the surface. FIG. 5C is a schematic representation of the penetration of a small spheres through 50 μl hydrogel in a 0.2 ml reaction tube depending on the force exerted by the 45° centrifuge.
The hydrogels were formed by mixing peptide-starPEG-conjugate and 14-kDa-heparin at 5 mM final concentration in 50 μl phosphate buffer (1×PBS). The analysis was performed by centrifuging the hydrogels in a 45° tabletop centrifuge with 275 μm metal beads on the gel surface. The deformation of the surface and the penetration of the spheres were recorded in dependence on the exerted force.

[2] = Stability of formed hydrogels against different solvents; conditions: 24° C., at least three days
Method: In order to test the strength of the interaction between the peptide motif and the 14-kDa-heparin the formed hydrogels were tested with regard to different solvents. […] For this the peptide-starPEG-conjugates were mixed with 14 kDa-heparin in 50 μl in physiological phosphate buffer solution (1×PBS) to a final concentration of respectively 5 mM. Each solvent, i.e., physiological phosphate buffer solution (1×PBS), Milli-0-water, 1 M hydrochloric acid (HCl) 1 M sodium hydroxide solution (NaOH), saturated sodium chloride solution (NaCl), dimethyl sulfoxide (DMSO), ethanol and cell culture medium with 2% fetal bovine serum (FBS) were respectively added as 200 μl supernatant to the hydrogel. The hydrogel was incubated at a room temperature of 24° C. and the supernatants where exchanged every day for at least three days. All experiments were performed three times. Under none of the tested conditions the KA7-hydrogel could be destroyed. […] 2,2,2-trifuourethanlol (TFE) is known to destroy any type of secondary structures.

[3] = Hydrogel formation in different solvents; conditions: 5 mM conjugate + 5 mM 14-kDa-heparin
Method: Three respective different cases were tested in the hydrogel-formation stability test. […] The hydrogels were formed by mixing the final concentrations of respectively 5 mM peptide-starPEG-conjugate and 5 mM 14-kDa-heparin in 50 μl physiological phosphate buffer solution (1×PBS), Milli-Q-water or cell culture medium with 2% fetal bovine serum (FBS). The stability of the hydrogels was tested with the same solvent in which it was formed in 200 μl supernatant. The hydrogels were incubated at room temperature (24° C.), the supernatants were changed every day for at least three days in a row and the result after at least 3 days analyzed.

[4] = Erosion experiment with TAMRA-marked 14-kDa-heparin; conditions: 5 mM conjugate + 5 mM TAMRA-heparin, cell culture medium with 2% FBS, 37° C.
Method: Further, an erosion experiment was conducted. For this purpose peptide-starPEG-conjugates were respectively mixed with TAMRA-marked 14-kDa-heparin. For the erosion experiment the TAMRA-marked 14-kDa-heparin had to be synthesized beforehand. Hereby 14-kDa-heparin was marked with 5-(and-6)-carboxytetramethylrhodamin (TAMRA, Invitrogen) by using the 1-ethyl-3-(3-dimethylaminopropyl)carbodiimide/N-hydroxysulfosuccinimide-(EDAC/sNHS)-chemistry. Heparin, TAMRA, EDAC, sNHS and Na2CO3 were mixed at a ratio of 1:2:5:4:20 in water and incubated overnight. Thereafter the mixture was dialyzed for two days against 10 liters of water in a dialysis membrane with an exclusion limit of 8 kDa with constant exchange of water. The dialyzed product was filtered through a 0.22 μm polyvinylidene fluoride filter (PVDF-filter) and freeze-dried to a red product.
Subsequently the peptide-starPEG-conjugates were respectively mixed with the TAMRA-labelled 14-kDa-heaprin in 50 μl cell culture medium to a final concentration of 5 mM. […] The fluorescence was measured at defined time points in the supernatant by using a plate reading device (BECKMAN COULTER […] Detection platform, BECKAMN COULTER, Brea, Calif., USA) and black 96-well-plates with clear bottom.
Both peptides shoed without heparin a random coiled structure in Milli-Q-water. […] The fluorescence was measured in 200 μl of 1 ml supernatant. […]

[5] = Hydrogel formation of peptide-starPEG conjugates with 14-kDa-heparin; conditions: peptide coupled to 10-kDa starPEG; 5 mM 14-kDa-heparin + 5 mM (2.5 mM) conjugate, 50 μl 1×PBS pH 7.4
Method: Following is the description of the production of the hydrogel networks. Hereby 14-kDa-heparin (25 mM, 2.5 mM) and peptide-starPEG conjugates (6.25 mM, 3.125 mM) were dissolved in physiologic phosphate buffer solution (1×PBS) water or cell culture medium with 2% fetal bovine serum (FBS). These solutions were dissolved in a ratio of 1:4 heparin:peptide-starPEG-conjugate by obtaining […] or 5 mM 14-kDa-heparin and 2.5 mM or 5 mM peptide-starPEG. The ligand/mol ratio was 2:1, 1:1 and 1:5 relative to the mol ratio of 14-kDa-heparin and the peptide-starPEG-conjugate. The mixtures were incubated within a time frame of one hour to overnight at […]. The gelation time spanned from present up to several hours depending on the applied peptide motif.
as §1
In addition to the peptide motif, a tryptophan was labeled with a one letter code W, for UV detection and purification and a cysteine, marked with the one letter code C, bound to the N-terminal end of the peptide with two glycine. By applying the Michael-addition-chemistry, the cysteine was coupled to the maleimide-functionalized 10-kDa-starPEG. […] This is the largest library of peptide-polymer-conjugates, for which each of the oligosaccharide dependent hydrogel formation was analyzed. To analyze the formation of hydrogels, all peptide-starPEG-conjugates were each mixed with 14-kDa-heparin in 50 μI phosphate buffer (1×PBS) to a final concentration of 5 mM. […]

Row | Substance | Deformation speed ([1]; 50 μl 1×PBS, 45° centrifuge) | Penetration speed ([1]; 275 μm metal beads) | Stability of hydrogel against supernatant ([2]; supernatant 1M HCl) | Stability of hydrogel against supernatant ([2]; supernatant 1M NaOH) | Stability of hydrogel against supernatant ([2]; supernatant 1xPBS, 5 mM conjugate + 5 mM heparin gel) | Stability of hydrogel against supernatant ([2]; supernatant Cell culture medium with 2% FBS) | Stability of hydrogel against supernatant ([2]; supernatant DMSO) | Stability of hydrogel against supernatant ([2]; supernatant Ethanol) | Stability of hydrogel against supernatant ([2]; supernatant Saturated NaCl solution) | Stability of hydrogel against supernatant ([2]; supernatant Water) | Hydrogel formation in solvent ([3]; Cell culture medium with 2% FBS) | Hydrogel formation in solvent ([3]; PBS, 50 μl, result after at least 3 days) | Hydrogel formation in solvent ([3]; water (Milli-Q)) | Heparin released from the hydrogel (erosion) [4] | Hydrogel formation with heparin [5]
1 | CWGGKAKAKAKAKA [KA5] | 11223 +/- 4768 m/s^2 | 21209 +/- 2188 m/s^2 | only destroyed by 1 M HCl after more than one week incubation; also recorded: Stable; hydrogel was | Stable | Stable | Stable | Stable | Stable | Stable | Stable | formed | formed | Formed | more erosion | –
2 | CWGGkAkAkAkAkAkAkA (CWGG[dK]A[dK]A[dK]A[dK]A[dK]A[dK]A[dK]A) [dKA7] | – | – | – | – | – | – | – | – | – | – | – | – | – | – | neither formation of a hydrogel

Reference: patent publication US11523990B2, “Non-covalent, self-organzing hydrogel matrix for biotechnological applications” (DENOVOMATRIX GMBH, priority 2012, dated 2022)
